The target of one series is Chymotrypsin (CTRC) (bovine (pancreas), UniProt P00766 1-245). The experiment in a line: bead-based affinity chromatography, fluorescence; PBS pH 7.4, room temperature, 1 h; EMSA 500 nM oligo + 200 µM protein, 5% agarose; bead assay with bead-immobilized protein, Alexa488 oligo 1-60 nM (lysozyme) o. For orientation: In EMSA bound probe runs differently from free probe, usually more slowly.

For the next series, the target named is Lysozyme C (Gallus gallus (Chicken), UniProt P00698 19-147). The series is described as above.
Sequence of Lysozyme C (P00698 19-147): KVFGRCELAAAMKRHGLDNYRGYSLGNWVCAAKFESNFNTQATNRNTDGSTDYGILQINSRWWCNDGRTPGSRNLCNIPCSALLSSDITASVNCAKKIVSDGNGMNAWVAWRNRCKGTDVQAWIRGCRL
A further series concerns the target Cytochrome c (equine (heart), UniProt P00004 2-105). The series is described as above.
For a further series, the target named is BSA (Bos taurus (Bovine), UniProt P02769 25-607). The series can be described thus: EMSA; PBS pH 7.4, room temperature.
Sequence of BSA (P02769 25-607): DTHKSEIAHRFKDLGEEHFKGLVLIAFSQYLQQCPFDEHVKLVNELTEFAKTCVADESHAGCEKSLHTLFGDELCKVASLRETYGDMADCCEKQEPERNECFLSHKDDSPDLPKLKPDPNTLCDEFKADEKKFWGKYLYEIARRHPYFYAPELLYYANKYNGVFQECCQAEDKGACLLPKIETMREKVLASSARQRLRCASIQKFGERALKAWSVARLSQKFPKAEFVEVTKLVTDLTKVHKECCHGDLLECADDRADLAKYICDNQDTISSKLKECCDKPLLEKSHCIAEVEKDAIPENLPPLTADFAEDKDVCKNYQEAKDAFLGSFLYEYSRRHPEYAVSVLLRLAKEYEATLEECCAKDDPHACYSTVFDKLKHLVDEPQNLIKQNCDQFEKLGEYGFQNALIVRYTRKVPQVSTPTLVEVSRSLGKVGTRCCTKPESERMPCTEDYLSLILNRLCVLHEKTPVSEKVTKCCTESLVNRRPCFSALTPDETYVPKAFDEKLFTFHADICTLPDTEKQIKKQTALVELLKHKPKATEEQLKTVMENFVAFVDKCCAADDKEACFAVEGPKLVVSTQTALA
The target of a further series is Chymotrypsin (Bos taurus (Bovine), UniProt P00766;P00766;P00766 1-13;16-146;149-245). The series can be described thus: pulldown; PBS pH 7.4, room temperature.

Sequence of Cytochrome c (P00004 2-105): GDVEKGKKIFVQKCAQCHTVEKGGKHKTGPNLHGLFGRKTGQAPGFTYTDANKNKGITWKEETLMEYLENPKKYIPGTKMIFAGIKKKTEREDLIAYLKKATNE

A word on the Kd: it is the concentration at which binding is half-saturated. Take ATAAATTTAAGACATGAAAAAATAAATTTTTATTTTTTTACGTTTTTATT (ssDNA) [oligonucleotide 1, Alexa488]: the Kd in the series with Chymotrypsin (CTRC) stood at 1.4 µM; with Lysozyme C it was 0.014 µM; with Cytochrome c, 1.4 µM.
As for ATAAATTTAAGACATGAAAAAATAAATTTTTATTTTTTTACGTTTTTATT (ssDNA), the binding result in the series with BSA is listed as “no binding”. The molecule further showed a Kd in the series with Chymotrypsin of 1.4 µM.

B1: oligonucleotide 2, Alexa488 (ssDNA)
DNA: CGGTCCTCAGATGTGATTCCATCCTTCTTTTGAGCAAACTACCTGTATAACGTAAGTCCGTGTGTGCGAA
As for B1, the Kd with Chymotrypsin (CTRC) came to 3.3 µM; with Lysozyme C it was 0.008 µM; with Cytochrome c, 1.1 µM.

B2:  (ssDNA)
DNA: CGGTCCTCAGATGTGATTCCATCCTTCTTTTGAGCAAACTACCTGTATAACGTAAGTCCGTGTGTGCGAA
Regarding B2, the binding result in the series with BSA is reported as “no binding”. The same molecule gave a dissociation constant (Kd) with Chymotrypsin of 3.3 µM.

Source of the values: PMC10054347.
